Assay results from PMC8406179.

How the values were obtained:
[1] = molecular target: retinoblastoma tumor suppressor protein RB1 (endogenous, HCT116) (UniProt P06400); assay: immunoprecipitation/Western blot (anti-Flag IP of E7, RB1 immunoblot); details: parent: 1
endogenous murine Rb1 = endogenous murine Rb1 (UniProt P13405); assay: immunoprecipitation/Western blot (anti-HA IP of E7, Rb1 immunoblot); details: NIH 3T3 cells, transient expression; parent: 1
[2] = HCT116 cells, transient expression

UniProt P06400, sequence (P06400 whole entry): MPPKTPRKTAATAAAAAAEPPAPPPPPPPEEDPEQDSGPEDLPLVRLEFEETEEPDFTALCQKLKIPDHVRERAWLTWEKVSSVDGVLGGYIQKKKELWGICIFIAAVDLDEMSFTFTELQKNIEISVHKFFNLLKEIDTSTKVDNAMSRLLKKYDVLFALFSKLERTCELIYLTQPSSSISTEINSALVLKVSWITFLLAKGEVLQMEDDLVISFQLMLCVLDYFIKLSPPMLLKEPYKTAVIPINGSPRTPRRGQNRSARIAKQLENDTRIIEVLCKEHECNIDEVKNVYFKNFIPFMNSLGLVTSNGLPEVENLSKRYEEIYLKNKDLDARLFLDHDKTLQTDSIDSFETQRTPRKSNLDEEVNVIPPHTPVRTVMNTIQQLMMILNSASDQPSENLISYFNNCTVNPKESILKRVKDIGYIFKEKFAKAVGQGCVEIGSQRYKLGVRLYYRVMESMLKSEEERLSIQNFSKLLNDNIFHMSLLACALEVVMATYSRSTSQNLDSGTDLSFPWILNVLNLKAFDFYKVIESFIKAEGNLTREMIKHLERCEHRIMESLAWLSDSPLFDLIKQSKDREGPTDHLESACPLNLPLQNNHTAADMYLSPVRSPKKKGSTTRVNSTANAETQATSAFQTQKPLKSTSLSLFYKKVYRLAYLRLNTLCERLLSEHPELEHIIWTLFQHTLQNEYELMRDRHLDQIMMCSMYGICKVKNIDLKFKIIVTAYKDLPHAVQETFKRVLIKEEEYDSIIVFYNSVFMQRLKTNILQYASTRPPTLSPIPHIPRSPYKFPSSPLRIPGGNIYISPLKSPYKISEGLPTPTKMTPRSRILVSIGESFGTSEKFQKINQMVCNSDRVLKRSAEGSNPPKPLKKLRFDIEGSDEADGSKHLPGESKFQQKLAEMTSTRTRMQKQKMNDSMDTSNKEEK
UniProt P13405, sequence (P13405 whole entry): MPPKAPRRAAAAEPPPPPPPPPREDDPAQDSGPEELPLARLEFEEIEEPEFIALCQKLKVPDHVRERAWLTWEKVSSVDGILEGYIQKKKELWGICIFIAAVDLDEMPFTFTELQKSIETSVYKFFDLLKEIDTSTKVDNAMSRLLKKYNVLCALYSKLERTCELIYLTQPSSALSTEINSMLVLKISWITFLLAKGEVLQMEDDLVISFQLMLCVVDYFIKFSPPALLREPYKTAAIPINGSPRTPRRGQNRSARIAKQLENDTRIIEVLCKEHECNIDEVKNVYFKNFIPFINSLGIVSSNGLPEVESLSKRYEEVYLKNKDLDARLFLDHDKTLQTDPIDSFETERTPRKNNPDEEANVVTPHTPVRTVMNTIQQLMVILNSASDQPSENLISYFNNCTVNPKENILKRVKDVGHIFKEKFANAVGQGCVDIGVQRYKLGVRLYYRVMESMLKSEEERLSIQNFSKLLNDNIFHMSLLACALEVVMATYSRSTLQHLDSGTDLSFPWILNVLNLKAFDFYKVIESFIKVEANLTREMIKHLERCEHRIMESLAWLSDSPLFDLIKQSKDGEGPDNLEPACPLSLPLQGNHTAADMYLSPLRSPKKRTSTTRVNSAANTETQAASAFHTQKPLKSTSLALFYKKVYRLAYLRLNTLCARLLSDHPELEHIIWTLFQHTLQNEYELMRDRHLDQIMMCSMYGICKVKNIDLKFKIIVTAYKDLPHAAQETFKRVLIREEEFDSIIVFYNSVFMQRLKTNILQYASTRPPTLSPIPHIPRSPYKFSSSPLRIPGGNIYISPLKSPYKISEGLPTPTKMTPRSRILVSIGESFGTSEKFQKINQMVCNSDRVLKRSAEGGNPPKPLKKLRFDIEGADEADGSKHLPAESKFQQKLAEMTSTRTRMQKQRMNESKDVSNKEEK

Substance | ratio to parent [1, 2] | ratio to parent [1] | ratio to parent (endogenous murine Rb1)
N-terminally FLAG/HA epitope-tagged MmuPV1 E7 E84R; S85R | 0.65 |  | 
N-terminally FLAG/HA epitope-tagged MmuPV1 E7 D90N |  | 0.27 | 
N-terminally FLAG/HA epitope-tagged MmuPV1 E7 D90A | 0.01 | 0.05 | 0.02
N-terminally FLAG/HA epitope-tagged MmuPV1 E7 D90T |  | 0.07 | 
N-terminally FLAG/HA epitope-tagged MmuPV1 E7 R57D | 0.64 |  | 
